{"source": "a protein production outcome set (Wang et al. 2014)"}
{"test": "label from the status in PepcDB records"}
{"sequence": "MVTTRKPLRAAIIGLGRLGERHARHLVNKIQGVKLVAACALDSNQLEWAKNELGVETTYTNYKDMIDTENIDAIFIVAPTPFHPEMTIYAMNAGLNVFCEKPLGLDFNEVDEMAKVIKSHPNQIFQSGFMRRYDDSYRYAKKIVDNGDIGKIIYMRGYGIDPISGMESFTKFATEADSGGIFVDMNIHDIDLIRWFTGQDPVQAYGLTSNIAAPQLADIGEFETGVAQLKMSDGVIATLIGGRHAAHGNQVELEVMGSNGWVRIGEHPDLNRVTVFNDQGVVRPSLQSFGERFDTAFTDEVQDFVNNVIVGKQPEVTVDDGIKALKIAKACQQSANIGKLVDIQL", "protein production": "failed"}
{"sequence": "MVVADGHDLQESPLRWIPFLAVFLYVYIEISIFIQVAHVLGVLMTLILVIFTSVIGMSLVRNQGFKNFLLMQQKMAAGESPAAEMIKSVSLIIAGLLLLLPGFFTDFLGLLLLLPPVQKHLTLKLLPHLRFSRMPGGGFSAGTGGGETFDGEYQRKDDDRDRIEHKDDRRD", "protein production": "failed"}
{"sequence": "MVVSVLMPTYNHERFIEQAILSFIQQQVDFDIELLIGDDCSSDNTSFIARIYAEKYPNKIHLFQYSVNRGLMHNYKYLLNQAKGKYIAILESDDIWLDPFKLHKQVEIIEKTPNCGLVFSNWIVIDADSKEVTRSQRTLKTIGYSDLLKSNMVAAVTVLFSRNMFDLYCDIDEYILRNFKTLDYPVWLSISAHSNIIYLDDYTAGYRCLSTSISNSNSYQRSMAFNQSIDAIVQYVVSKYGKGELTIKELENASKLRYLTQAFQFKKFSQAFSIAWTFHATNIKSFIIKVLPFIWLCKNRKLIGQRLK", "protein production": "failed"}
{"sequence": "MVVTCPKCGAKNRLGTPPPGQVPVCGACKTPLPWVVEADEKGFAQEVAGAPLTLVDFFAPWCGPCRLVSPILEELARDHAGRLKVVKVNVDEHPGLAARYGVRSVPTLVLFRRGAPVATWVGASPRRVLEERLRPYLEGR", "protein production": "not failed"}
{"sequence": "MVVVTGREPDSRRQDGAMSSSDAEDDFLEPATPTATQAGHALPLLPQEFPEVVPLNIGGAHFTTRLSTLRCYEDTMLAAMFSGRHYIPTDSEGRYFIDRDGTHFGDVLNFLRSGDLPPRERVRAVYKEAQYYAIGPLLEQLENMQPLKGEKVRQAFLGLMPYYKDHLERIVEIARLRAVQRKARFAKLKVCVFKEEMPITPYECPLLNSLRFERSESDGQLFEHHCEVDVSFGPWEAVADVYDLLHCLVTDLSAQGLTVDHQCIGVCDKHLVNHYYCKRPIYEFKITWW", "protein production": "failed"}
{"sequence": "MVWFLILQLIVLLILVAFSATLMAKGTRELERSFGKGIAGGLILGFINALPETIIVIQAVLNGFYDIALGSALGGNILLLTLGIGLISIFYYLKYKSNIITLDSDINIEYSSFLLAVIILGIAIVYGKLNYYIGLFLLSPYIYYIYRRYKNYRGILKNEKNKGNAIKGLAYVMIGGLPLIFISKYLISTISSIASVFNVQPLILAILITPIAAELEENLTAIKLISDSPSSATTALMNFIGSKLENMTLLLSIIGISQTVSLRPSLLYLLLILATSLLALGIIKDRNIKVKEGLSLFGIYAILIAILLRFSA", "protein production": "failed"}
{"sequence": "MVWLAVFLAVLGAFFLAIGAQRQGSAVKADTGGLALSSNGFLRLLRNPRWMLGLLFLALGMVMNAVALVSAPLTVVQPIGAIALVITTVVNAKDQGLSINRATVVAISACVTGSALFVLLAVNVTQENHHVNTEDELTIVLLLALAVGIFGTLAVVFRHRMSAFVYILGAGVLFGFVAVLTRIIGKHLLDPNGLFLLNVQWYTLIAIVAAGGLGSWFVQSAYSGGPPDLVIAGLTVIDPMVGIAIGIVILGELRPDVHAVMAIAMAAAATLAIVGVIALSRHHPEVTKRKKDAKAAASRKA", "protein production": "failed"}
{"sequence": "MVYLMLCLKIWRVVLKKNKTLVFISLFLLSVFLGGFYFYFDPNILYLLKGEKDFSKLIMGIDFYIDKKKFADAKKAMLFSSYYANTEFKWLALAKRAKLWALNTGDYHLMGEIVNLGVKVLPGNLKLRALEVYSKLKIGLLKDAYRIANEYLLNSEEYQGLYDEVFIKNLSSDNGILDFNKFIDKIYKEKDARIFEEIGLNLKNNAFLINAMLLYIEKKNIDSAKRILFRIKEDKSFLKELAYISYNLNDLDYTISNLKSIKNEEDPTLLFLLADAYFKKGDIKNAKNEYLKLYTRFPDYNVLVYLNLALIANSENDYKRAISYLNKANEVFKDNKIINYYLANIYFGIKNYFKANEIIANYKEDPLFFKLYFALNYANSKYEAKKSYLWRLFYKTEYNSSIAQFLAWNLLLYSDLKDLDLFFRIYNFSENKQDWYDFYKFYYYFLKRDFISSKKIIFDNKSQKYMFGIYYNLGVLSFSEKDYEEAERYFNKGISLLPSSFYDKDSTTPYERELVSKIYLKQGINYLYLGKMEKGKESILASYSFYETDEGRLYKNMIDTLRERNLNFD", "protein production": "failed"}
{"sequence": "MVYWEYKINQTRRVMKNLKFQSVFDIIGPVMVGPSSSHTAGAVRIGKIVSAIFGDAPTEVEFQLFNSFAKTYRGHGTDVALVAGILGMETDDPDIPHALDIAHEKGIKVYWKINKDSKAPHPNTTRITLKNATKTISATGISIGGGNIQVTELNGF", "protein production": "not failed"}
{"sequence": "MWAFPERFEGRHVRLEPLALAHLPAFLRHYDPEVYRFLSRAPVAPTEEALRAHLEGLLGEPGRVNWAILFGKEVAGRISVIAPEPEHAKLELGTMLFKPFWGSPANKEAKYLLLRHAFEVLRAERVQFKVDLRNERSQRALEALGAVREGVLRKNRRLPDGAFRDDVVYSVLKEEWPGVKARLEARLYGASGN", "protein production": "not failed"}
{"sequence": "MWARTAAWVFGLPETLREICYRRDNVKPVDELQKTIGHRFGDMELLLTAMTHSSWANEQAVPVEHNERLEFLGDAVLELCVSEELFRRFPSAREGDLTRMRSRLVSKPSLEGVARELRLDMSLRLGKGEESQGGRERGSLLSDALEAMLGAVFLDAGYIAAKGVVMRILGPHFPEALVPVRTKDYKSQLQELTQKLFRDRPVYTLLGSSGPEHDKQFDVRVVLPDGTVFEATGPSMKRAEQMAAARAVATLDK", "protein production": "failed"}
{"sequence": "MWIVLWPGLTGLPDSLVLLARVGGCSVLYDTGSGEPGSIVALAANLASAGVKPWSINVAIVSHAHVPSSGGARWLHDNHRVTIAARRPDSRWIEEGDPVKTAAVDYGLPTKPVPIGLELEREGRMPGECEGVEVLFTPGHTPGSVSVSLDTGDATVLAVSDALGRLKRDWGSSEREWMESLDKISSRDPDYLCTSVTCMDRRAAKAFLDEIREKGPVWDVENSSGDGPG", "protein production": "failed"}
{"sequence": "MWKKKIVLSFLFYLISALGISLTIQAGVGVSSFNAFNVTFATLTHLKVGTVTTAINFAFLGTCWLLDQQRKIQDYLIILVALIGFGFVINFFLYQLFGSLVFQNYLVKIVLFILGTIIAGIGTGQVVALGVLQFPIEKFCTLISERTRYSFQFYRYLVDIFCVSLALGLSISYHLPIFVREGTVISLFLLSWVISWSRKRGQQRILRIQIKKLESE", "protein production": "failed"}
{"sequence": "MWNYQKNILVCMIAGLGLSTCTPSDVSIPGAATIDVMNGFPDGESGYALGVSGCYAGKLGDFLLMAGGCNFPDKPVSEGGIKHYYKGIYIARVDDSSSLRWVKAGELPMEAAYGATVSLPDRLIFIGGSNSSDRFSSVLSFSFDCMKDSGLICETLPPLPHAVDNMSATLLGDTLYVLGGNRNGIPSSSMFSLCLDNYSAGWTEVPFPGRPRVQPVCSSLLGKLYVFGGFTSGGDASVSTDGLCYHPESGQWQVVKAPLTTKGEPLTLTGGASVSYGDVLLICAGGVNRDIFEDAISARYQMVRESEYLLQPIEWYRFNDQLLAYNVRSGEWIRIGVPSPMLARAGSSLVVFGDILFYIGGELKPGVRTPGICRISLQK", "protein production": "failed"}
{"sequence": "MWSYDKITDYLMNNLGEKRYKHSLGVMDTAVRLAGIYNEDTEKARIAGLVHDCAKKLPGEKIIEICTNEGYELGDEDIRNSYLLHGLAGRILAKKVIGIDDEDVLNAIEFHTTGRPNMSLLEKIIYIADYIEPGREFKGVDELRKAADEDLNKALLMSFDNTIKFVIDKGGFLHHNTIEARNYLISRKG", "protein production": "not failed"}
{"sequence": "MWTRLLPFLAWLPGLHRGMLGREAWVGLNGAILALPQSMAYALIAGLPAEYGLYAAMLPVAIACLWGSSRYLVSGPTAAISVLLFSSVAPLAPLGSPQYVQAVLLLTFLAGAFQWLLGVLRVGSLVNFVSHSVMLGFTLGAALLIVLGQLPYLLGLAASGEGAAPGNGWRLLARFAEFDGPSLLVGGFSFALSLLVRRLRPRWPALLLGLLGGATLVWALPGTFASVAHVQALSSALPGWSPLVFDSRSILDLLPAAVACGMLGLVTSLSIARALAARQGDAFDANQEVRAQGLSNLLGPWLSASLSAGSFTRSGLNLEAGARSPLAGAFSALWVALLAVLGARLIEHVPLPAMAAGILLIAWGLIDRPALRALYRSGRAECLVAGLTALATLLLPLQNAIYAGVLASLVFYLRRTSTPRVLRQRNDEEEVLRIEGSIFFGACDYLQRLMRQCDRPRLVLDARQVNFIDFAGAVLLQQEARRLHAEGRRLVLRHARPQVREALGRQADEGCRLHYEG", "protein production": "failed"}
{"sequence": "MWVYRLKGTLEALDPILPGLFDGGARGLWEREGEVWAFFPAPVDLPYEGVWEEVGDEDWLEAWRRDLKPALAPPFVVLAPWHTWEGAEIPLVIEPGMAFGTGHHETTRLALKALARHLRPGDKVLDLGTGSGVLAIAAEKLGGKALGVDIDPMVLPQAEANAKRNGVRPRFLEGSLEAALPFGPFDLLVANLYAELHAALAPRYREALVPGGRALLTGILKDRAPLVREAMAGAGFRPLEEAAEGEWVLLAYGR", "protein production": "not failed"}
{"sequence": "MWWWSSSTKGRSNLERFLLGITPKPPSFSLPQEQGKEEIEYFRLGDLWDCYDEMSAYGFGTQVDLNNGETVMQYYVPYLSAIQIHTNKPALLSRNQNEVAESESSEGWSDSESEKLLSRSMSNDSSKTWDAVSEDSVFDPDGSPLLKDRLGNLDFKYIERDPPHKRIPLTDKINVLVEKYPGLMTLRSVDMSPASWMAVAWYPIYHIPTCRNEKDLTTGFLTYHTLSSSFQDNVVEGDQSNNNEETEFCEDSVINKRMPLPPFGVTTYKMQGDLWGKTGFDQDRLLYLQSAADSWLKQLNVDHHDYNFFLNSSF", "protein production": "failed"}
{"sequence": "MYANKVKKIAAVHDLSGMGRVSLTVVIPILSSMGFQVCPLPTAVLSNHTQYPGFSFLDLTDEMPKIIAEWKKLEVQFDAIYTGYLGSPRQIQIVSDFIKDFRQPDSLIVADPVLGDNGRLYTNFDMEMVKEMRHLITKADVITPNLTELFYLLDEPYKADSTDEELKEYLRLLSDKGPQVVIITSVPVHDEPHKTSVYAYNRQGNRYWKVTCPYLPAHYPGTGDTFTSVITGSLMQGDSLPMALDRATQFILQGIRATFGYEYDNREGILLEKVLHNLDMPIQMASYELI", "protein production": "not failed"}
{"sequence": "MYDMLKFEFSDRFLLFSYFVLIMFIGSLLLMLPISWEGDGKLAYIDALFTAVSAVSITGLTTVKMEGFSTFGFILIMLLIQLGGLGFISITTFYLLIPKKKMNLTDARIIKQYSLSNIEYNPIRILKSILFITFSIEMIGLILILICFKLRGVNISFLEALFTTISAFCNAGFSMHSESIYAWRDVPEAIVVVSILIICGGLGFMVYRDVNNTIKNKKKLSLHAKIVFSLSFFLIIIGAILFFFTEMHKLKAGYSMSTLIFNSIFYSISTRTAGFNYLDNSLISGRTQIISLPFMFIGGAPGSTAGGIKITTFFLIVLAVVKNQNGNGYIIGSYKVSIDSIRFALLFFARAIFILSFSFFMLLFFEGGSGNWKVIDLGYEVFSAFGTVGLSVGVTQDLSFWGKVIIIFTMFAGRIGLFSMAVFVSRKSRFEEFTRPRQDILVG", "protein production": "failed"}
{"sequence": "MYDYSILPNRIILCVDLRSFYASVSCIKMGLDPMHTKLAVVGDVNRNGSIVLAATPPLKALGVKKMARLYEIPRRKDILVVNPIMSTYIKCSNYITKLALQYVPIEDFHQYSIDEFFMDITDSIHLFAQDPYEFAMKFKREIYDHTRIECTIGIAPNPLMSKVALDIEAKKNKDGIAFWQYEDIPTKLWSIRPLNKFWGISYKTEEKLNRKGIYSIGDLANYPLKYLKQSFGKIGEELHLHSHGIDFSRISEKYVPATTSIGKSQILMRDYTIEEFPIILLEHIEEVCYRLRRQTKLAQTIHFSVGYSKSYTGGIRKTHTLNRPTNLTMDIYHICTYFLHQQYTGEPIRSINISLTNLIQEGEEQISLFDNVTKREQEMKLTKVMDEIRTKFGKNSILRGISYTHSATARHRNTLIGLEHHHHHH", "protein production": "failed"}
